The labels stand for the following.
B1: eGFP-GGSG-Flag-RBM20-WT [human] / Transportin-3 [human (endogenous in HeLa)] (parent complex)
chain 1: MVLAAAMSQDADPSGPEQPDRVACSVPGARASPAPSGPRGMQQPPPPPQPPPPPQAGLPQIIQNAAKLLDKNPFSVSNPNPLLPSPASLQLAQLQAQLTLHRLKLAQTAVTNNTAAATVLNQVLSKVAMSQPLFNQLRHPSVITGPHGHAGVPQHAAAIPSTRFPSNAIAFSPPSQTRGPGPSMNLPNQPPSAMVMHPFTGVMPQTPGQPAVILGIGKTGPAPATAGFYEYGKASSGQTYGPETDGQPGFLPSSASTSGSVTYEGHYSHTGQDGQAAFSKDFYGPNSQGSHVASGFPAEQAGGLKSEVGPLLQGTNSQWESPHGFSGQSKPDLTAGPMWPPPHNQPYELYDPEEPTSDRTPPSFGGRLNNSKQGFIGAGRRAKEDQALLSVRPLQAHELNDFHGVAPLHLPHICSICDKKVFDLKDWELHVKGKLHAQKCLVFSENAGIRCILGSAEGTLCASPNSTAVYNPAGNEDYASNLGTSYVPIPARSFTQSSPTFPLASVGTTFAQRKGAGRVVHICNLPEGSCTENDVINLGLPFGKVTNYILMKSTNQAFLEMAYTEAAQAMVQYYQEKSAVINGEKLLIRMSKRYKELQLKKPGKAVAAIIQDIHSQRERDMFREADRYGPERPRSRSPVSRSLSPRSHTPSFTSCSSSHSPPGPSRADWGNGRDSWEHSPYARREEERDPAPWRDNGDDKRDRMDPWAHDRKHHPRQLDKAELDERPEGGRPHREKYPRSGSPNLPHSVSSYKSREDGYYRKEPKAKSDKYLKQQQDAPGRSRRKDEARLRESRHPHPDDSGKEDGLGPKVTRAPEGAKAKQNEKNKTKRTDRDQEGADDRKENTMAENEAGKEEQEGMEESPQSVGRQEKEAEFSDPENTRTKKEQDWESESEAEGESWYPTNMEELVTVDEVGEEEDFIVEPDIPELEEIVPIDQKDKICPETCLCVTTTLDLDLAQDFPKEGVKAVGNGAAEISLKSPRELPSASTSCPSDMDVEMPGLNLDAERKPAESETGLSLEDSDCYEKEAKGVESSDVHPAPTVQQMSSPKPAEERARQPSPFVDDCKTRGTPEDGACEGSPLEEKASPPIETDLQNQACQEVLTPENSRYVEMKSLEVRSPEYTEVELKQPLSLPSWEPEDVFSELSIPLGVEFVVPRTGFYCKLCGLFYTSEETAKMSHCRSAVHYRNLQKYLSQLAEEGLKETEGADSPRPEDSGIVPRFERKKL
chain 2: MEGAKPTLQLVYQAVQALYHDPDPSGKERASFWLGELQRSVHAWEISDQLLQIRQDVESCYFAAQTMKMKIQTSFYELPTDSHASLRDSLLTHIQNLKDLSPVIVTQLALAIADLALQMPSWKGCVQTLVEKYSNDVTSLPFLLEILTVLPEEVHSRSLRIGANRRTEIIEDLAFYSSTVVSLLMTCVEKAGTDEKMLMKVFRCLGSWFNLGVLDSNFMANNKLLALLFEVLQQDKTSSNLHEAASDCVCSALYAIENVETNLPLAMQLFQGVLTLETAYHMAVAREDLDKVLNYCRIFTELCETFLEKIVCTPGQGLGDLRTLELLLICAGHPQYEVVEISFNFWYRLGEHLYKTNDEVIHGIFKAYIQRLLHALARHCQLEPDHEGVPEETDDFGEFRMRVSDLVKDLIFLIGSMECFAQLYSTLKEGNPPWEVTEAVLFIMAAIAKSVDPENNPTLVEVLEGVVRLPETVHTAVRYTSIELVGEMSEVVDRNPQFLDPVLGYLMKGLCEKPLASAAAKAIHNICSVCRDHMAQHFNGLLEIARSLDSFLLSPEAAVGLLKGTALVLARLPLDKITECLSELCSVQVMALKKLLSQEPSNGISSDPTVFLDRLAVIFRHTNPIVENGQTHPCQKVIQEIWPVLSETLNKHRADNRIVERCCRCLRFAVRCVGKGSAALLQPLVTQMVNVYHVHQHSCFLYLGSILVDEYGMEEGCRQGLLDMLQALCIPTFQLLEQQNGLQNHPDTVDDLFRLATRFIQRSPVTLLRSQVVIPILQWAIASTTLDHRDANCSVMRFLRDLIHTGVANDHEEDFELRKELIGQVMNQLGQQLVSQLLHTCCFCLPPYTLPDVAEVLWEIMQVDRPTFCRWLENSLKGLPKETTVGAVTVTHKQLTDFHKQVTSAEECKQVCWALRDFTRLFR

The first experiment covers variants of B1. The experiment can be described thus: co-immunoprecipitation, mass spectrometry; cytoplasmic fractions, HeLa; normalized to Neg; n = 3; parent: 1.7; read off a plot.
On to chain 1 R634Q, for which the screen value is approximately 0.9.
Still for that read-out and setting: next, chain 1 P633L: approximately 1.5; chain 1 R634Q, chain 1 S635E, chain 1 S637E: approximately 0.3.

The variants in a further experiment derive from B1. The experiment is described as follows: co-immunoprecipitation, western blot quantification; HeLa cells expressing eGFP-RBM20, cytoplasmic fraction; n = 3; parent: 3.3; read off a plot. A general note: A western blot detects proteins with antibodies after separation by electrophoresis.
In the case of chain 1 R634Q, the response is approximately 1.6 relative HRP signal.
As to chain 1 P633L, the response was approximately 2.4 relative HRP signal.
The same measure, in the same setting: next, chain 1 R634Q, chain 1 S635E, chain 1 S637E: approximately 1.2 relative HRP signal.
